# From publication PMC9098913, “In vitro reconstitution of Escherichia coli divisome activation” (Nature Communications, 2022)
# B1: FtsA R286W-His6: FtsA R286W (1-405) with amphipathic helix replaced by C-terminal His-tag (protein)
# chain: MIKATDRKLVVGLEIGTAKVAALVGEVLPDGMVNIIGVGSCPSRGMDKGGVNDLESVVKCVQRAIDQAELMADCQISSVYLALSGKHISCQNEIGMVPISEEEVTQEDVENVVHTAKSVRVRDEHRVLHVIPQEYAIDYQEGIKNPVGLSGVRMQAKVHLITCHNDMAKNIVKAVERCGLKVDQLIFAGLASSYSVLTEDERELGVCVVDIGGGTMDIAVYTGGALRHTKVIPYAGNVVTSDIAYAFGTPPSDAEAIKVRHGCALGSIVGKDESVEVPSVGGRPPWSLQRQTLAEVIEPRYTELLNLVNEEILQLQEKLRQQGVKHHLAAGIVLTGGAAQIEGLAACAQRVFHTQVRIGAPLNITGLTDYAQEPYYSTAVGLLHYGKESHLNGEAEVEKRVTASV
# modifications: Cy3 or Cy5 at the N-terminus in the labelled form (sortagging as for native FtsA); left off: TwinStrep-SUMO, N-terminal, cleaved | 5xGlycine tag, N-terminal, kept | His6, C-terminal, kept
# Test system: FtsA self-interaction
# Test: FRET self-interaction of His-tagged FtsAs (and His-SUMO control) on Tris-NTA membranes
# Type: binding, E. coli
# Experimental: To study colocalization of His-tagged variants of FtsA, 0.5–1 µM of Cy5 labelled His-tagged FtsAs were added to the chamber, incubated for 20 min and washed 6x with reaction buffer. […] To control the density of membrane-bound FtsA, SUVs without and with Tris-NTA lipids were mixed to obtain the respective Tris-NTA concentrations. To perform FRET/FRAP experiments, equimolar concentrations of Cy3 and Cy5 labelled His-tagged FtsAs (total 0.5–1 µM) or His-SUMO-Cys were added to a chamber and treated as above. […] FRAP experiments were performed as described before.
# Bleaching the acceptor dye leads to an increase in the donor intensity, which can be used to quantify the Foerster Resonance energy transfer (FRET)[48]. FRET efficiency was quantified with E%=Ipost/Ipost+Ipre⋅100 , where Ipost is the intensity of the […] and Ipre is the […]. […] To extract the contribution of both processes, we adjusted a routine recently published by Gerganova et al.[33]. In short, the code provides the contribution of both modes of recovery by analysing the shape of the fluorescence recovery profile. […] Contribution of diffusion leads to a change of the slope of the outer borders of the bleached region (S4h right). Thus, by measuring the change of the slope of the border recovery, diffusion and simple on/off binding can be distinguished. We developed “FRAPdiff”, a graphical user interface, which uses the original fit routine by David Rutkowski. It can be used directly on.tiff movies with annotated bleach regions as ImageJ ROIs. In addition, we added optional bleach correction, user selectable projection axis (x or y), and optional mirroring of the recovery profiles, if bleaching was not symmetric. The original fit routine for estimating the recovery and diffusion dynamics can be found at https://github.com/davidmrutkowski/1DReflectingDiffusion. FRAPdiff is available at 10.5281/zenodo.6400639[49] under the GPLv3 open-source license.
molecule,measurement,setting,value
B1,FRET efficiency,"0.1% Tris NTA, + FtsZ; Exp1",0.51%
same,FRET efficiency,"0.1% Tris NTA, + FtsZ; Exp2",0.32%
same,FRET efficiency,"0.1% Tris NTA, + FtsZ; mean, n = 2",0.42%
same,FRET efficiency,"0.1% Tris NTA, without FtsZ; Exp1",0.42%
same,FRET efficiency,"0.1% Tris NTA, without FtsZ; Exp2",0.20%
same,FRET efficiency,"0.1% Tris NTA, without FtsZ; mean, n = 2",0.31%
same,FRET efficiency,0.4% Tris NTA; + FtsZ; Exp1,4.18%
same,FRET efficiency,0.4% Tris NTA; + FtsZ; Exp2,2.69%
same,FRET efficiency,"0.4% Tris NTA; + FtsZ; Mean, n = 2",3.43%
same,FRET efficiency,0.4% Tris NTA; without FtsZ; Exp1,3.62%
same,FRET efficiency,0.4% Tris NTA; without FtsZ; Exp2,3.61%
same,FRET efficiency,"0.4% Tris NTA; without FtsZ; Mean, n = 2",3.62%
same,FRET efficiency,0.6% Tris NTA; + FtsZ; Exp1,3.82%
same,FRET efficiency,0.6% Tris NTA; + FtsZ; Exp2,8.42%
same,FRET efficiency,0.6% Tris NTA; + FtsZ; Exp3,3.49%
same,FRET efficiency,"0.6% Tris NTA; + FtsZ; Mean, n = 3",5.24%
same,FRET efficiency,0.6% Tris NTA; without FtsZ; Exp1,2.27%
same,FRET efficiency,0.6% Tris NTA; without FtsZ; Exp2,7.55%
same,FRET efficiency,0.6% Tris NTA; without FtsZ; Exp3,3.60%
same,FRET efficiency,"0.6% Tris NTA; without FtsZ; Mean, n = 3 (His6-SUMO n = 2)",4.47%
same,FRET efficiency,0.8% Tris NTA; + FtsZ; Exp1,12.66%
same,FRET efficiency,0.8% Tris NTA; + FtsZ; Exp2,13.96%
same,FRET efficiency,0.8% Tris NTA; + FtsZ; Exp3,6.95%
same,FRET efficiency,"0.8% Tris NTA; + FtsZ; Mean, n = 3",11.19%
same,FRET efficiency,0.8% Tris NTA; without FtsZ; Exp1,11.90%
same,FRET efficiency,0.8% Tris NTA; without FtsZ; Exp2,13.18%
same,FRET efficiency,0.8% Tris NTA; without FtsZ; Exp3,7.63%
same,FRET efficiency,"0.8% Tris NTA; without FtsZ; Mean, n = 3 (His6-SUMO n = 2)",10.90%
same,FRET efficiency,1% Tris NTA; + FtsZ; Exp1,18.63%
same,FRET efficiency,1% Tris NTA; + FtsZ; Exp2,11.68%
same,FRET efficiency,1% Tris NTA; + FtsZ; Exp3,16.69%
same,FRET efficiency,1% Tris NTA; + FtsZ; Exp4,5.28%
same,FRET efficiency,"1% Tris NTA; + FtsZ; Mean, n = 3 (R286W-His6 n = 4)",13.07%
same,FRET efficiency,1% Tris NTA; without FtsZ; Exp1,13.30%
same,FRET efficiency,1% Tris NTA; without FtsZ; Exp2,11.28%
same,FRET efficiency,1% Tris NTA; without FtsZ; Exp3,16.33%
same,FRET efficiency,1% Tris NTA; without FtsZ; Exp4,5.94%
same,FRET efficiency,"1% Tris NTA; without FtsZ; Mean, n = 3 (R286W-His6 n = 4)",11.71%
same,FRET efficiency,2% Tris NTA; + FtsZ; Exp1,13.95%
same,FRET efficiency,2% Tris NTA; + FtsZ; Exp2,11.07%
same,FRET efficiency,"2% Tris NTA; + FtsZ; Mean, n = 2",12.51%
same,FRET efficiency,2% Tris NTA; without FtsZ; Exp1,11.54%
same,FRET efficiency,2% Tris NTA; without FtsZ; Exp2,10.61%
same,FRET efficiency,"2% Tris NTA; without FtsZ; Mean, n = 2",11.08%
same,FRET efficiency,"Tris 0.40 %, + FtsZ; mean",3.43%
same,FRET efficiency,"Tris 0.40 %, without FtsZ; mean",3.61%
same,FRET efficiency,"Tris 0.60 %, + FtsZ; mean",5.24%
same,FRET efficiency,"Tris 0.60 %, without FtsZ; mean",4.47%
same,FRET efficiency,"Tris 0.80 %, + FtsZ; mean",11.19%
same,FRET efficiency,"Tris 0.80 %, without FtsZ; mean",10.90%
same,FRET efficiency,"Tris 1.00 %, + FtsZ; mean",13.07%
same,FRET efficiency,"Tris 1.00 %, without FtsZ; mean",11.71%
same,FRET efficiency,"Tris 2.00 %, + FtsZ; mean",12.51%
same,FRET efficiency,"Tris 2.00 %, without FtsZ; mean",11.08%
same,FRET efficiency,"[…] Tris NTA, + FtsZ; Exp1",3.67%
same,FRET efficiency,"[…] Tris NTA, + FtsZ; Exp2",2.76%
same,FRET efficiency,"[…] Tris NTA, + FtsZ; mean, n = 2",3.22%
same,FRET efficiency,"[…] Tris NTA, without FtsZ; Exp1",3.93%
same,FRET efficiency,"[…] Tris NTA, without FtsZ; Exp2",1.52%
same,FRET efficiency,"[…] Tris NTA, without FtsZ; mean, n = 2",2.73%
same,FRET efficiency,[…] Tris NTA; + FtsZ; Exp1,8.55%
same,FRET efficiency,[…] Tris NTA; + FtsZ; Exp2,12.05%
same,FRET efficiency,[…] Tris NTA; + FtsZ; Exp3,9.96%
same,FRET efficiency,"[…] Tris NTA; + FtsZ; Mean, n = 3",10.19%
same,FRET efficiency,[…] Tris NTA; without FtsZ; Exp1,9.50%
same,FRET efficiency,[…] Tris NTA; without FtsZ; Exp2,13.25%
same,FRET efficiency,[…] Tris NTA; without FtsZ; Exp3,7.80%
same,FRET efficiency,"[…] Tris NTA; without FtsZ; Mean, n = 3",10.18%
same,FRET increase with FtsNcyto-His,[…] Tris-NTA,more than twofold
same,FRET efficiency,[…] Tris-NTA; + N (FtsNcyto); mean,18.47%
same,FRET efficiency,[…] Tris-NTA; + N/Z (FtsNcyto and FtsZ); mean,17.73%
same,FRET efficiency,[…] Tris-NTA; + N/Z; Exp. 1,21.67%
same,FRET efficiency,[…] Tris-NTA; + N/Z; Exp. 2,17.33%
same,FRET efficiency,[…] Tris-NTA; + N/Z; Exp. 3,14.20%
same,FRET efficiency,[…] Tris-NTA; + N; Exp. 1,22.02%
same,FRET efficiency,[…] Tris-NTA; + N; Exp. 2,17.07%
same,FRET efficiency,[…] Tris-NTA; + N; Exp. 3,16.35%
same,FRET efficiency,[…] Tris-NTA; + Z (FtsZ); mean,8.99%
same,FRET efficiency,[…] Tris-NTA; + Z; Exp. 1,5.42%
same,FRET efficiency,[…] Tris-NTA; + Z; Exp. 2,8.55%
same,FRET efficiency,[…] Tris-NTA; + Z; Exp. 3,12.05%
same,FRET efficiency,[…] Tris-NTA; + Z; Exp. 4,9.96%
same,FRET efficiency,[…] Tris-NTA; alone; Exp. 1,4.90%
same,FRET efficiency,[…] Tris-NTA; alone; Exp. 2,9.50%
same,FRET efficiency,[…] Tris-NTA; alone; Exp. 3,13.25%
same,FRET efficiency,[…] Tris-NTA; alone; Exp. 4,7.80%
same,FRET efficiency,[…] Tris-NTA; alone; mean,8.86%
same,FRET efficiency,with FtsNcyto attached to the membrane; mean ± s.d.; p-value 0.03,17.73 ± 3.06%
